Measured values taken from patent publication US20240307538A1.

What was measured:
[1] = molecular target: Fc gamma macrophage receptors; test: flow cytometry on human macrophages, hybrid 5 µg/ml, 2 h at 37°C, anti-Fc-FITC
[2] = molecular target: Fc gamma macrophage receptors; test: flow cytometry on human macrophages, hybrid 5 µg/ml, 20 h at 37°C, anti-Fc-FITC
[3] = molecular target: Fc gamma macrophage receptors; test: cell-based or functional assay
[4] = molecular target: Fc gamma receptors of NK cells; test: cell-based or functional assay
[5] = molecular target: Fc gamma receptors of NK cells; test: cytofluorimetry on NK cells, 30 min at 37°C
[6] = molecular target: Fc gamma receptors of NK cells; test: cytofluorimetry on NK cells, 24 h at 37°C
[7] = molecular target: Fc gamma receptors of NK cells; test: cytofluorimetry on NK cells, 48 h at 37°C
[8] = molecular target: Fc gamma receptors of NK cells; test: cytofluorimetry on NK cells, labelled Fc 10 µg/ml, 30 min at 37°C, no IgG
[9] = molecular target: Fc gamma receptors of NK cells; test: competition, cytofluorimetry on NK cells: labelled FcSDHFSTIE-N3-DBCO-A647 10 µg/ml with human IgG 1000 µg/ml
[10] = molecular target: Fc gamma receptors of NK cells; test: competition, cytofluorimetry on NK cells: labelled FcSDHFSTIE-N3-DBCO-A647 10 µg/ml with human IgG 100 µg/ml; ratio to NEG
[11] = molecular target: Fc gamma receptors of NK cells; test: competition, cytofluorimetry on NK cells: labelled FcSDHFSTIE-N3-DBCO-A647 10 µg/ml with human IgG 10000 µg/ml; ratio to NEG
[12] = molecular target: Fc gamma receptors of NK cells; test: competition, cytofluorimetry on NK cells: labelled FcSDHFSTIE-N3-DBCO-A647 10 µg/ml with human IgG 10 µg/ml
[13] = molecular target: Fc gamma receptors of NK cells; test: competition, cytofluorimetry on NK cells: labelled FcSDHFSTIE-N3-DBCO-A647 10 µg/ml with human IgG 1 µg/ml
[14] = molecular target: Fc gamma receptors of NK cells; test: competition, cytofluorimetry on NK cells: labelled FcSDHFSTIE-N3-DBCO-A647 10 µg/ml with human IgG 1000 µg/ml; ratio to NEG
[15] = molecular target: Fc gamma receptors of NK cells; test: competition, cytofluorimetry on NK cells: labelled FcSDHFSTIE-N3-DBCO-A647 10 µg/ml with human IgG 100 µg/ml
[16] = molecular target: Fc gamma receptors of NK cells; test: competition, cytofluorimetry on NK cells: labelled FcSDHFSTIE-N3-DBCO-A647 10 µg/ml with human IgG 10000 µg/ml
[17] = molecular target: Fc gamma receptors of NK cells; test: competition, cytofluorimetry on NK cells: labelled FcSDHFSTIE-N3-DBCO-A647 10 µg/ml with human IgG 1 µg/ml; ratio to NEG
[18] = molecular target: Fc gamma receptors of NK cells; test: competition, cytofluorimetry on NK cells: labelled FcSDHFSTIE-N3-DBCO-A647 10 µg/ml with human IgG 10 µg/ml; ratio to NEG

Question: With “Fc-LALA-β60-74cit (from UniProt P01857 104-330) (Fc fusion)” as the substance, how does the Macrophages (fluorescence by cytofluorimetry) [1] read?
Answer: Its Macrophages (fluorescence by cytofluorimetry) is 502.

Question: What about the Macrophages (fluorescence by cytofluorimetry) [2] of the same substance?
Answer: Its Macrophages (fluorescence by cytofluorimetry) is 404.

Question: How did the inhibition of phagocytosis by competing human IgG at 10 mg/ml [3] turn out when “Fc-WT-PEG-α621-635cit (from UniProt P01857 104-330) (Fc fusion)” was run?
Answer: Its inhibition of phagocytosis by competing human IgG at 10 mg/ml is 50%.

Question: With “Fc-WT-PEG-β60-74cit (from UniProt P01857 104-330) (Fc fusion)” as the substance, how does the % expression of CD107a (NK cell degranulation) [4] read?
Answer: Its % expression of CD107a (NK cell degranulation) is 1.8%.

Question: Which results are given for “Fc-WT-β60-74cit (from UniProt P01857 104-330) (Fc fusion)”?
Answer: Macrophages (fluorescence by cytofluorimetry) [1]: 808; Macrophages (fluorescence by cytofluorimetry) [2]: 1000

Question: Which % expression of CD107a (NK cell degranulation) [4] does the source give for “FcLALAPG-β60-74 (from UniProt P01857 104-330) (Fc fusion)” here?
Answer: Its % expression of CD107a (NK cell degranulation) is 2.2%.

Question: How did the MFI [5] turn out when “FcSDHFSTIE-N3-DBCO-A488 (from UniProt P01857 104-330)” was run?
Answer: The MFI was 2970.

Question: What about the MFI [6] of the same substance?
Answer: Its MFI is 2350.

Question: And the MFI [7]?
Answer: Its MFI is 1710.

Question: Which MFI [8] does the source give for “FcSDHFSTIE-N3-DBCO-A647 (from UniProt P01857 104-330)” here?
Answer: The MFI was 38500.

Question: Which MFI [5] does the source give for “FcSDHFSTIE-N3-DBCO-PEG3-β60-74cit-lysineA488 (from UniProt P01857 104-330) (Fc fusion)” here?
Answer: The MFI was 4590.

Question: And the MFI [6]?
Answer: Its MFI is 4090.

Question: What about the MFI [7] of the same substance?
Answer: The MFI was 4340.

Question: For human IgG (antibody), which MFI of FcSDHFSTIE-N3-DBCO-A647 with IgG as competitor [9] is on record?
Answer: Its MFI of FcSDHFSTIE-N3-DBCO-A647 with IgG as competitor is 29500.

Question: What about the RATIO of FcSDHFSTIE-N3-DBCO-A647 with IgG as competitor [10] of the same substance?
Answer: Its RATIO of FcSDHFSTIE-N3-DBCO-A647 with IgG as competitor is 171.

Question: And the RATIO of FcSDHFSTIE-N3-DBCO-A647 with IgG as competitor [11]?
Answer: The RATIO of FcSDHFSTIE-N3-DBCO-A647 with IgG as competitor was 96.6.

Question: And the MFI of FcSDHFSTIE-N3-DBCO-A647 with IgG as competitor [12]?
Answer: Its MFI of FcSDHFSTIE-N3-DBCO-A647 with IgG as competitor is 38800.

Question: What about the MFI of FcSDHFSTIE-N3-DBCO-A647 with IgG as competitor [13] of the same substance?
Answer: The MFI of FcSDHFSTIE-N3-DBCO-A647 with IgG as competitor was 37900.

Question: And the RATIO of FcSDHFSTIE-N3-DBCO-A647 with IgG as competitor [14]?
Answer: Its RATIO of FcSDHFSTIE-N3-DBCO-A647 with IgG as competitor is 139.

Question: And the MFI of FcSDHFSTIE-N3-DBCO-A647 with IgG as competitor [15]?
Answer: The MFI of FcSDHFSTIE-N3-DBCO-A647 with IgG as competitor was 36300.

Question: What about the MFI of FcSDHFSTIE-N3-DBCO-A647 with IgG as competitor [16] of the same substance?
Answer: Its MFI of FcSDHFSTIE-N3-DBCO-A647 with IgG as competitor is 20500.

Question: And the RATIO of FcSDHFSTIE-N3-DBCO-A647 with IgG as competitor [17]?
Answer: The RATIO of FcSDHFSTIE-N3-DBCO-A647 with IgG as competitor was 179.

Question: What about the RATIO of FcSDHFSTIE-N3-DBCO-A647 with IgG as competitor [18] of the same substance?
Answer: Its RATIO of FcSDHFSTIE-N3-DBCO-A647 with IgG as competitor is 183.
